A short description of this data set: label from the status in PepcDB records.

Consider “MMTLVILLLFLLFCVLVFWISITFSIKYVLIFTAFLFSGLLVYYSFLTLAGLVHRSRKQKDRTLEHYPSVDILIPAHNEGVVIKDTLEAMAKIEYPGKLTVYLLNDNSQDETPEIGDDFDKAYAHIRHIRVPPGEPKGKSRVLNYGLSISDGEYFCVYDADNQPEPHALRMLVEHAETTEDAVGAVGHVRTVNEKRNWLTRMISLEFQIFQLLMQSGRWLLFQTGSLTGTNMLLRRAALEELGGYDPYAIAEDAELTLRITQKGYLLPIVPESITWEQEPEHLKILIKQRTRWLQGNLYILEKMFSSLSFFKGKLLVHSLQQVLVYVVFWLFLIISNVWFVIGLLGIFQIQYSIPLLFMWYVAYVTYVSQLFSAQSVERTFTPTNIFISVIMYFTYAQLFTYLFIRSLILYLRAKSKKQVIGWDKTVRFKKDK”, for which the protein production entry is on record as “failed”. The result for “MMTQPMPGKPAEDAENELDIRGLFRTLWAGKLWIIGMGLAFALIALAYTFFARQEWSSTAITDRPTVNMLGGYYSQQQFLRNLDVRSNMASADQPSVMDEAYKEFVMQLASWDTRREFWLQTDYYKQRMVGNSKADAALLDEMINNIQFIPGDFTRAVNDSVKLIAETAPDANNLLRQYVAFASQRAASHLNDELKGAWAARTIQMKAQVKRQEEVAKAIYDRRMNSIEQALKIAEQHNISRSATDVPAEELPDSEMFLLGRPMLQARLENLQAVGPAFDLDYDQNRAMLNTLNVGPTLDPRFQTYRYLRTPEEPVKRDSPRRAFLMIMWGIVGGLIGAGVALTRRCSK” reads “not failed”. The result for “MMTTNTEYAPYRLELVNITKRYGGLVANDHISLKVAAGEIHAVLGENGAGKSTLMKIIYGAVKADEGEIVWNGRSVTVDSPAAARRLGIGMVYQHFSLFETLTVVENIALGLEEKFDLAHLAQRVVEVSEKYGLPIDPQRMVHSLSVGERQRVEIVRCLLQNPSLLILDEPTSVLTPQAVQVLFQTLRRLASEGVSILYISHKLNEIQSLCDTATILRGGQVTGTAIPKQETTASLAKMMIGRDLPAYQQHAYEGVQQPIFQVKQLSIPAQDMFGTSLKEINLSVNTGEILGIAGISGNGQAELLTALSGETTSLKESFWLDGQAIGHLHAGQRRKLGFGFVPEERLGRGAVPAMSLTENTLLTAFRMGMTRWGLVNYAKASAFAQACISKFGVKASGSDAAARSLSGGNLQKFIVGREIMQQPKVMVVAQPTWGVDVGASAFIRQTLIDLSRQGVAIVVISEELEELFEISDRIAVLAAGQLSPPQPVNETNAEQIGLLMSGLQRDSQPQEDVIRVSI” reads “failed”; that for “MMVISEKVRKALNDQLNREIYSSYLYLSMATYFDAEGFKGFAHWMKKQAQEELTHAMKFYEYIYERGGRVELEAIEKPPSNWNGIKDAFEAALKHEEFVTQSIYNILELASEEKDHATVSFLKWFVDEQVEEEDQVREILDLLEKANGQMSVIFQLDRYLGQRE”, “not failed”. Regarding “MMVPDVSNFAVILTTSGAILLIAYLTAISARDVIRLLISLELMFAAVFLAIVPLFSINPPMAYAVAIITAFTSSTELMVLVTAIILLDRRKRGIDVDKVAVGGDSL”, the protein production entry is recorded as “failed”. “MMWIPYNQGFHAGPKCLTVVFIYLLNMKVLRHIYRFLMELYGPQGWWPLLDRDTMTLRYHPGDYTPPSDDGDVFEVITGSILTQNTSWDSAASALRNLAAMDALKPHRILSLDDAELEAAIRCAGFYRQKVSYLREMAGFFISLEGSTPSRKELLKVRGVGPETADSVLLYAYRKPEFVVDAYTRRILTHLGLIAGDESYHRIKELFERSLEPDFRVFQEYHALIVRHGKSYYRGRVHGDGDPLEHHHHHH”: the protein production result was “failed”. For the sequence “MMWNLIKNEFIKLRYKRKYIICTIVFALICIGFCAVYVKMQKASTPDAAIQYYKDAKSSLQSKEKNIKDATLKQQYDQQISQLDEQIKQYQQSKNQGNSNWKKQLKNTIDSLKDEKNQAADITENTAKESYNKQIVFYQYLLNHNIKPQDNNSLSTFQLLQSLLKLIGYILIPIIIAIFSADIVSGEYTPPTIKVLLSKPASRAKILASKFIASAISCIAIILLIELITYLITGIAYGFDNPSYPVLVGTKYMNSGIKLTQDSTGLIPILGSSYVIPLWQFLIEMFLFQILFIIGCCSFFLLLSVVLRSSVLSMTLSIMIVIALNIISQISALHVIMPFLFTNYGSPYDILTNSIPSTSGLTFTTAIFGVIYLIIFTILCYGIANYSFKKKDMTV”, the protein production result is reported as “failed”. Under “MMYPYVRLFMEMRRARRLDPLPVLGTHRSSHRCLPWDLAPWRELNNGRTLTLFDLGRAPLLVRTGMQRICSEKGWGMTVAGSSVRYRRRVVLMERLEMVSRCLGWDGRFFYMEQSLWRKGDCTSHMLLRAATTTGSGIVPPAEVAAALGAGESPPLPDWAQAWIEADALRPWPPAALEHHHHHH” stands “failed”. The result for “MMYRNQCTAKEKLMNRINEVSFAVNDVLLYLDTHPCCEEAISFYQECEQERQKLLKEYAQCYGPLTVDAALESGGDTWKWVQQPFPWETEGGCRLEHHHHHH” reads “not failed”. Consider “MNADYFFNQGLSDNLSREYQRTVVGGTKPTNRRIDAETYCKRGITFSRELKDYQGAIAFFNLAVEINPNYAQAYYHRANARYCLADFTAAIADYDQALQINPTFAEYYYCRGNAYLAQGDYDQAIANYISTIEFDPLLASNINEDIANAYYYRGLNNNDQGNYQEAIIDLQQALQWHPYFAAAYSIRGNIYYKLGEYRQAIADHERAVQLDPNLAEAYQNRGNAHYALGAYQKAIADYNRTLEINPHQVGAYYNRGLISFYLHEYQQAFADFNQVLNFNPNDAQAYYQRGLIYEAWQDYQSALADYNQSLQLNSELAVVYGVRANIYRHLGDYPSALADGNRLLELQPNFAAGYCDRATSRRCLGDYRGAIADYNQALQINPNIAEAYYGRAIAHEALRDFIGAIADYTQSIRISPDFAPAYCNRGNARRQLGDTKGAVTDYNQALTINPQLSEAYYNRGSLHYDQQNYRSAIADYTQALELQPESARYYSDRAHARYALQDYQGAVADYTQSIAINPGYAEDWYNRGRSHLLLGYLEEALADLNQALKFHPHWASAYLLRADILRNRGDYQAAIADFQKSADLYSQEGNTQNYQQILEIIAGLK”, for which the protein production result was “failed”. Under “MNAENNQTTTTHSKVISHVFCTGTAKLGSVGPPIGLVDIGVSEVAYIFRVSLPGIEKNQDKIKCEIQREGRVCIQGVIPEIAIPSDTGCLYRMQVQQLCPPGPFSITFNLPGQVDPRLFSPNFRSDGIFEVVVVKLGVRIPTS” stands “failed”; under “MNAIILAAGFGSRLMPLTKDQPKCMVEYKNKKIIDYEIEALKSAGINEIAVVGGYLNDVLKNYLNKYDIEHFFINSKYDKTNMVHTFFCAKDFMLKCIEEKQDLIISYADIVYFQDCVQKLINAKEELAIVVDKSWCKLWSKRFANPLEDAETLKMTNGYIIELGKKANAYDEIEAQYIGLFKFSYQFLSEVIAFYEMLDRDILYDNKNFENMYMTSFLQALIEKYNNAKAVEIDGNWCEIDFMSDLEVQIEKLEHHHHHH”, “failed”; under “MNAIISPDYYYVLTVAGQSNAMAYGEGLPLPDREDAPHPRIKQLARFAHTHPGGPSCHFNDIIPLTHCPHDVQDMQSYHHPLATNHQTQYGTVGQALHIARKLLPFIPDNAGILIVPCCRGGSAFTAGSEGTYSERHGASHDACRWGTDTPLYQDLVSRTRAALVKNPQNKFLGVCWMQGEFDLMTSDYASHPQHFNHMVEAFRRDLKQYHSQLNNITDAPWFCGDTTWYWKENFPHAYEAIYGNYQNNILANIIFVDFQQQGARGLTNAPDEDPDDLSTGYYGSAYRSPENWTTAXRSSHFSSAARRGIISDRFVEAILQFWRER”, “not failed”.

In the case of “MNAKPKDTVIANARIVLADRVIEQGWLALANGRVAEIGEGRAPAGAEDAGGDLIMPGLIELHTDHLEAHYVPRPKVFWNPVAAVVSYDGQLATSGITTVFDSLRVWREDGAEEVDGRAGVLAAAITTARDADLLRADHFLHLRCEIPMPSVVEEAKELIDRPDVKLMSLMDHTPGQRQFRDEGKLRDYYRGKNGGKTDAQLDELFAKRFEYQKAYAATNMREIVALAHQYNIPLASHDDTTEENVADAVRDRVSVAEFPTTLEAARGLHQAGIDILMGAPNVVRGGSHSGNIAAVDLAREGLLDILSSDYIPSSLLMAALQLPEHVPAISLPAAVRTVTKAPAEAVGLSDRGEIAVGKRADLIRVHIAGSVPVVRSVWREGGRVA”, the protein production entry is “failed”.

As for “MNALAVRWNDWPITRKSLAVVTLPLLLLAVALMAIYSVERQNIAAENDVRQTLEVLSDLYEAHALLAETAAGVRGYRLVRRDEFLTPYRDAEPRLQRVADRLSQRITDPSQAQRFARIKPLFAEKMQGWRRLLAPDLSREEEIRQLWDGKYKLDILRAELRELRNYETAQLQVRTAKAQGLRQRNLIITLSAAMLGGLGAVFAVAWFASALSGRLRTLAANADRLGEGLPLAPQPRAGDELGQVGQRLAQASELLAARAAEAQLARREAETANRAKTEFLSRSSHELRTPLNAILGYAQVLEMDLPEPGHRRHLRHILGAGRHLLGLITELLDIARIEADQLDLSPEPISVRAAVHEALGLIAPDADKHGIALQPASIDGPWTVRADAQRLRQVLLNLLSNAVKFNRTGGQVQVSAQADGEQVRITVADQGAGLTPAQIERLFTPFERLGAERSAVEGTGLGLALSKRLIEAMGGQIGVDSSSDGARFWISLPQGEHQHSEPTRPLVPPSNAGSGVCRLLSIEDNPSNQALIRTLTERRPQWQLLEAASLAQARELLQHGAPDLILLDLHLSDGNGEELLRELQAQPAMAAIPVVVISADATSATLARVGNQGVRAYLTKPLDVAEFFTVIDGLLA”, the protein production entry is “not failed”. The result for “MNALKGRDILALGFMTFALFVGAGNIIFPPIVGLQSGPHVWLAALGFLITAVGLPVITVIALAKVGGSVDALSHPIGRYAGGLLAAVCYLAVGPLFAIPRTATVSFEVGVVPLLGESGTALFVYSLAYFLLALAISLYPGRLLDTVGRFLAPLKILALAILGVAAFLWPAGPIGTAQPEYTQAAFSQGFVNGYLTMDTLAALVFGIVIVNAIRSRGVQSPRLITRYAIVAGLIAGVGLVLVYVSLFRLGAGSHAIAADASNGAAVLHAYVQHTFGSLGSSFLAGLIALACLVTAVGLTCACAEYFCQRLPLSYRSLVIILAGFSFIVSNLGLTKLIQVSIPVLTAIYPPCIVLVALSFCIGLWHSATRILAPVMLVSLAFGVLDALKAAGLGQDFPQWLLHLPLAEQGLAWLIPSVATLAACSLVDRLLGKPAQVAA” reads “failed”; that for “MNANYVSKKPYIVTIACTKGGSAKSTNAANIGAFCADHGLRTLLIDTDTQPTLSSYYSLAKTAPGGIYEFLLQRDVEPSHIVSQTSIKNLDLIQSNDPSNNVSHMLRNAPDGSIRFSHLIKSINNYDVIVIDTRGTRDITVDMSVLAADILFCPILPQILSAKEFIRGTIGMYQDLQTFESFGFKLPPLKAIANGVDNTNDVKFVMQKLHTLFANTFDESKTLLDFSIPYHVAYREAVTYALPVYRHSAVEYPVMQQLCCLLLPQFKENFEKPMQRGLEHHHHHH”, “not failed”; that for “MNAPEIAAFKAERREPDKTDVDKLTGELDIRSEIWLIFDDLSTILEDQHFADKGVELLFSSLRYNTHNAKIIVTSRIVPIFENGESLIDVVEDEEKQNLKGLRKDYAVDYLVSNGLDKVEHEKLEELATGVDGHPLALKLLVELVKEFGVKDTLEDLSMYQESKDDTIKKARRLFDKLAGEEKELLESISVYREPVDMKGLREMFTLNTPKNAVKKLTDKSLLENDHNGSYWLHPLVQEFSYKDLKNKKEAHILAVKYCLSLPLPENPTKKGDVQPLIEAHYHTCAAKEYDAAAEIIFHFKLYEMLERWGNYNTLIELYEGVLPKSHFEDEPLLKNKEFHISILGNLGNVYTVLNEGKKAIQYHEKVVELNKGATNKFNEIISISNIGLFYFQQGMMKKAIECFEQTLKISNHDNQKGISGANLGNIGLVYLQIGEPKKAIQYFEKSLPLLKEANDKRREGANLGHMGMAYLQLNEAKEAVQCIQQSMYIAEEINDKRSIGNCFGNMGIIHSFFGEMKEALESYEQALSIAKEIDDRCNLGNWLGNKGRVYFDSGEIEKAIEFYKHALRIAKEINDVVREGLWIENLGQAFSYQGEFKKAIEYYEQALKISREIGNISAEGNLLENMGLAYYSLGEPRKAIEFLKESLAIRKAIEDPKIIGFCEQKLKELKGYDE”, “failed”.

The values are drawn from a protein production outcome set (Wang et al. 2014).
